Patent publication US20250262210A1 (TRUSTEES OF COLUMBIA UNIVERSITY IN THE CITY OF NEW YORK, published 2025)
Residue numbers refer to the chain shown, from its start.

T1: LZTR1 R810W-FLAG (human, UniProt Q8N653 1-840)
T1 construct: Stably expressed in U87 cells by lentivirus; also called LZTR1-FLAG-R810W; LZTR1 RW; not shown: FLAG tag
T1 sequence (looked up): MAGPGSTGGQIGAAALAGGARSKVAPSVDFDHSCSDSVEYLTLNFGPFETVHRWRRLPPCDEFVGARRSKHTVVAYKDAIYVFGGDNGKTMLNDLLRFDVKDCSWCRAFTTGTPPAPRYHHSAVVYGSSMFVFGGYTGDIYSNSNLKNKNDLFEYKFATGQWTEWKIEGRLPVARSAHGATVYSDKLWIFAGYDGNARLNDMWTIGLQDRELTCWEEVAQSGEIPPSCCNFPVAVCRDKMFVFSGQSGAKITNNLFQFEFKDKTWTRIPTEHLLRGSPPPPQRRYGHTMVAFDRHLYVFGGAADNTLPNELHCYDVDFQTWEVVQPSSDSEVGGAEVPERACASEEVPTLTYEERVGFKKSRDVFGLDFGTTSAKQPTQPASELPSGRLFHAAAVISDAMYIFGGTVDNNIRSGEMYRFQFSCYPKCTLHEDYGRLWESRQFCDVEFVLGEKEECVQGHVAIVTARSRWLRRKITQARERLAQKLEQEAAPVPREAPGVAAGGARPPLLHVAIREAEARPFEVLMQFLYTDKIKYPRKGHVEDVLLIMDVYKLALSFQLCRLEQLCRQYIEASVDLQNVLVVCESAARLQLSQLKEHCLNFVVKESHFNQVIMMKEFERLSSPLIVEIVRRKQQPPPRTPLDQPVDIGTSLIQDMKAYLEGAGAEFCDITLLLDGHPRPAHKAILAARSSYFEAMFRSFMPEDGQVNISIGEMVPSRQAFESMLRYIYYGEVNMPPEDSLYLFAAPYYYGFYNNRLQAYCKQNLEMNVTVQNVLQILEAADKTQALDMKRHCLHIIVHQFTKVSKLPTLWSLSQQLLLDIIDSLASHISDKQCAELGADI

T2: LZTR1-FLAG (human, UniProt Q8N653 1-840)
T2 construct: Expressed in HEK 293T, HeLa or U87 cells; used as cell lysate; also called LZTR1 wild type-FLAG; LZTR1 WT; not shown: FLAG tag at the C-terminus
T2 sequence (looked up): T1 sequence (looked up) with W810R

B1: PNPLA2 (other, human, UniProt Q96AD5 1-504, looked up)
chain: MFPREKTWNISFAGCGFLGVYYVGVASCLREHAPFLVANATHIYGASAGALTATALVTGVCLGEAGAKFIEVSKEARKRFLGPLHPSFNLVKIIRSFLLKVLPADSHEHASGRLGISLTRVSDGENVIISHFNSKDELIQANVCSGFIPVYCGLIPPSLQGVRYVDGGISDNLPLYELKNTITVSPFSGESDICPQDSSTNIHELRVTNTSIQFNLRNLYRLSKALFPPEPLVLREMCKQGYRDGLRFLQRNGLLNRPNPLLALPPARPHGPEDKDQAVESAQAEDYSQLPGEDHILEHLPARLNEALLEACVEPTDLLTTLSNMLPVRLATAMMVPYTLPLESALSFTIRLLEWLPDVPEDIRWMKEQTGSICQYLVMRAKRKLGRHLPSRLPEQVELRRVQSLPSVPLSCAAYREALPGWMRNNLSLGDALAKWEECQRQLLLGLFCTNVAFPPEALRMRAPADPAPAPADPASPQHQLAGPAPLLSTPAPEARPVIGALGL
B2: PTOV1 (other, human, UniProt Q86YD1 1-416, looked up)
chain: MVRPRRAPYRSGAGGPLGGRGRPPRPLVVRAVRSRSWPASPRGPQPPRIRARSAPPMEGARVFGALGPIGPSSPGLTLGGLAVSEHRLSNKLLAWSGVLEWQEKRRPYSDSTAKLKRTLPCQAYVNQGENLETDQWPQKLIMQLIPQQLLTTLGPLFRNSQLAQFHFTNRDCDSLKGLCRIMGNGFAGCMLFPHISPCEVRVLMLLYSSKKKIFMGLIPYDQSGFVSAIRQVITTRKQAVGPGGVNSGPVQIVNNKFLAWSGVMEWQEPRPEPNSRSKRWLPSHVYVNQGEILRTEQWPRKLYMQLIPQQLLTTLVPLFRNSRLVQFHFTKDLETLKSLCRIMDNGFAGCVHFSYKASCEIRVLMLLYSSEKKIFIGLIPHDQGNFVNGIRRVIANQQQVLQRNLEQEQQQRGMGG
B3: RANBP9 (other, human, UniProt Q96S59 1-729, looked up)
chain: MSGQPPPPPPQQQQQQQQLSPPPPAALAPVSGVVLPAPPAVSAGSSPAGSPGGGAGGEGLGAAAAALLLHPPPPPPPATAAPPPPPPPPPPPASAAAPASGPPAPPGLAAGPGPAGGAPTPALVAGSSAAAPFPHGDSALNEQEKELQRRLKRLYPAVDEQETPLPRSWSPKDKFSYIGLSQNNLRVHYKGHGKTPKDAASVRATHPIPAACGIYYFEVKIVSKGRDGYMGIGLSAQGVNMNRLPGWDKHSYGYHGDDGHSFCSSGTGQPYGPTFTTGDVIGCCVNLINNTCFYTKNGHSLGIAFTDLPPNLYPTVGLQTPGEVVDANFGQHPFVFDIEDYMREWRTKIQAQIDRFPIGDREGEWQTMIQKMVSSYLVHHGYCATAEAFARSTDQTVLEELASIKNRQRIQKLVLAGRMGEAIETTQQLYPSLLERNPNLLFTLKVRQFIEMVNGTDSEVRCLGGRSPKSQDSYPVSPRPFSSPSMSPSHGMNIHNLASGKGSTAHFSGFESCSNGVISNKAHQSYCHSNKHQSSNLNVPELNSINMSRSQQVNNFTSNDVDMETDHYSNGVGETSSNGFLNGSSKHDHEMEDCDTEMEVDSSQLRRQLCGGSQAAIERMIHFGRELQAMSEQLRRDCGKNTANKKMLKDAFSLLAYSDPWNSPVGNQLDPIQREPVCSALNSAILETHNLPKQPPLALAMGQATQCLGLMARSGIGSCAFATVEDYLH
B4: POR (other, human, UniProt P16435 2-677, looked up)
chain: GDSHVDTSSTVSEAVAEEVSLFSMTDMILFSLIVGLLTYWFLFRKKKEEVPEFTKIQTLTSSVRESSFVEKMKKTGRNIIVFYGSQTGTAEEFANRLSKDAHRYGMRGMSADPEEYDLADLSSLPEIDNALVVFCMATYGEGDPTDNAQDFYDWLQETDVDLSGVKFAVFGLGNKTYEHFNAMGKYVDKRLEQLGAQRIFELGLGDDDGNLEEDFITWREQFWPAVCEHFGVEATGEESSIRQYELVVHTDIDAAKVYMGEMGRLKSYENQKPPFDAKNPFLAAVTTNRKLNQGTERHLMHLELDISDSKIRYESGDHVAVYPANDSALVNQLGKILGADLDVVMSLNNLDEESNKKHPFPCPTSYRTALTYYLDITNPPRTNVLYELAQYASEPSEQELLRKMASSSGEGKELYLSWVVEARRHILAILQDCPSLRPPIDHLCELLPRLQARYYSIASSSKVHPNSVHICAVVVEYETKAGRINKGVATNWLRAKEPAGENGGRALVPMFVRKSQFRLPFKATTPVIMVGPGTGVAPFIGFIQERAWLRQQGKEVGETLLYYGCRRSDEDYLYREELAQFHRDGALTQLNVAFSREQSHKVYVQHLLKQDREHLWKLIEGGAHIYVCGDARNMARDVQNTFYDIVAELGAMEHAQAVDYIKKLMTKGRYSLDVWS
B5: PPP6C (other, human, UniProt O00743 1-305, looked up)
chain: MAPLDLDKYVEIARLCKYLPENDLKRLCDYVCDLLLEESNVQPVSTPVTVCGDIHGQFYDLCELFRTGGQVPDTNYIFMGDFVDRGYYSLETFTYLLALKAKWPDRITLLRGNHESRQITQVYGFYDECQTKYGNANAWRYCTKVFDMLTVAALIDEQILCVHGGLSPDIKTLDQIRTIERNQEIPHKGAFCDLVWSDPEDVDTWAISPRGAGWLFGAKVTNEFVHINNLKLICRAHQLVHEGYKFMFDEKLVTVWSAPNYCYRCGNIASIMVFKDVNTREPKLFRAVPDSERVIPPRTTTPYFL
B6: RABGEF1 (other, human, UniProt Q9UJ41 1-491, looked up)
chain: MSLKSERRGIHVDQSDLLCKKGCGYYGNPAWQGFCSKCWREEYHKARQKQIQEDWELAERLQREEEEAFASSQSSQGAQSLTFSKFEEKKTNEKTRKVTTVKKFFSASSRVGSKKEIQEAKAPSPSINRQTSIETDRVSKEFIEFLKTFHKTGQEIYKQTKLFLEGMHYKRDLSIEEQSECAQDFYHNVAERMQTRGKVPPERVEKIMDQIEKYIMTRLYKYVFCPETTDDEKKDLAIQKRIRALRWVTPQMLCVPVNEDIPEVSDMVVKAITDIIEMDSKRVPRDKLACITKCSKHIFNAIKITKNEPASADDFLPTLIYIVLKGNPPRLQSNIQYITRFCNPSRLMTGEDGYYFTNLCCAVAFIEKLDAQSLNLSQEDFDRYMSGQTSPRKQEAESWSPDACLGVKQMYKNLDLLSQLNERQERIMNEAKKLEKDLIDWTDGIAREVQDIVEKYPLEIKPPNQPLAAIDSENVENDKLPPPLQPQVYAG
B7: RAP1GDS1 (other, human, UniProt P52306 1-607, looked up)
chain: MDNLSDTLKKLKITAVDKTEDSLEGCLDCLLQALAQNNTETSEKIQASGILQLFASLLTPQSSCKAKVANIIAEVAKNEFMRIPCVDAGLISPLVQLLNSKDQEVLLQTGRALGNICYDSHEGRSAVDQAGGAQIVIDHLRSLCSITDPANEKLLTVFCGMLMNYSNENDSLQAQLINMGVIPTLVKLLGIHCQNAALTEMCLVAFGNLAELESSKEQFASTNIAEELVKLFKKQIEHDKREMIFEVLAPLAENDAIKLQLVEAGLVECLLEIVQQKVDSDKEDDITELKTGSDLMVLLLLGDESMQKLFEGGKGSVFQRVLSWIPSNNHQLQLAGALAIANFARNDANCIHMVDNGIVEKLMDLLDRHVEDGNVTVQHAALSALRNLAIPVINKAKMLSAGVTEAVLKFLKSEMPPVQFKLLGTLRMLIDAQAEAAEQLGKNVKLVERLVEWCEAKDHAGVMGESNRLLSALIRHSKSKDVIKTIVQSGGIKHLVTMATSEHVIMQNEALVALALIAALELGTAEKDLESAKLVQILHRLLADERSAPEIKYNSMVLICALMGSECLHKEVQDLAFLDVVSKLRSHENKSVAQQASLTEQRLTVES

Target: T1, LZTR1 R810W-FLAG
Experiment: IP/MS, LZTR1 R810W-FLAG, U87
Method in brief: (§1)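 Read-out: spectral counts from LC-MS/MS (Orbitrap Fusion) after MaxQuant identification. Variable modifications were Met oxidation, protein N-terminal acetylation and N/Q deamidation.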

Binding result, binds:
B1
B2
B3
B4
B5
B6
B7

Target: T2, LZTR1-FLAG
Experiment: IP/MS, LZTR1 wild type-FLAG, U87
Method in brief: as §1

Binding result, binds:
B1
B2
B3
B4
B5
B6
B7
